Data from paper PMC10359615.

Molecular target: APE1Dead (catalytically dead APE1) D210N;E96Q (human) (UniProt P27695)
Assay: EMSA
Settings: EMSA: 50 mM Tris pH 8, 1 mM EDTA, 0.2 mg/ml BSA, 1 mM DTT, 5% sucrose, room temperature, 5 nM DNA, FRET: 20 mM HEPES pH 7.5, 150 mM KCl, 5 mM MgCl2, 5 mM …

APE1Dead (catalytically dead APE1) D210N;E96Q (human), sequence (P27695 whole entry E96Q/D210N): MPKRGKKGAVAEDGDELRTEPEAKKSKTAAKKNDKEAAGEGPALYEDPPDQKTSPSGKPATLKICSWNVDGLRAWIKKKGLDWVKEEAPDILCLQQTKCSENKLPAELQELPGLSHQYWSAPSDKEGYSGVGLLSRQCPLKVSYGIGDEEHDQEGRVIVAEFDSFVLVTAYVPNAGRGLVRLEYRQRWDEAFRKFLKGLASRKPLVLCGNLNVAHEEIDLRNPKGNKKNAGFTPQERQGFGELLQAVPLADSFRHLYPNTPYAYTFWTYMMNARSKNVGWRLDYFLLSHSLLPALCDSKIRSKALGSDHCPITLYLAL

With “GCTGATGCGCNCGACGGATCC [abasic ssDNA 21-mer]” the Kd (1 mM EDTA, Kd,app, N11 = tetrahydrofuran abasic analog (THF)) was 22 nM.
“CTCAACACTTAACTA / TGGATGATGACTCTTCTGCGTTCGCTGATGCGCCGACGGTAGTTAAGTGTTGAG [Rec-PTJ, abasic site 7 nt from junction (FAM)]” showed a Kd (THF abasic analog 7 nt from the 3' ds-ss junction) of 0.7 nM.
abasic dsDNA was tested, and the Kd (1 mM EDTA, Kd,app, THF abasic analog) was 0.4 nM.
For “CTCAACACTTAACTACCGTCG / TGGATGATGACTCTTCTGCGTTCGCTGATGCGCCGACGGTAGTTAAGTGTTGAG [PTJ, abasic site at junction (FAM)]”, the Kd (THF abasic analog directly next to the 3' ds-ss junction) was 1.2 nM.
